According to publication PMC6202052:
pKd: −log10 of the molar value.

Key:
[1] = target: Notch2 expressed in N2rep ES cells (UniProt O35516)
[2] = target: Notch1 expressed in N1rep ES cells (UniProt Q01705)
[3] = target: biotinylated human N1 ectodomain fragment containing EGF repeats 6–15 (human) (UniProt P46531); assay: BLI; BLItz instrument; biotinylated Notch1 fragment loaded on streptavidin biosensors, dipped into ligand samples of varying concentration until equilibrium; HBS-P buffer with 0.005% surfactant P20 and 5 mM CaCl2; equilibrium curves fitted with a one site specific binding model
Sequence of biotinylated human N1 ectodomain fragment containing EGF repeats 6–15 (human) (P46531 216-604): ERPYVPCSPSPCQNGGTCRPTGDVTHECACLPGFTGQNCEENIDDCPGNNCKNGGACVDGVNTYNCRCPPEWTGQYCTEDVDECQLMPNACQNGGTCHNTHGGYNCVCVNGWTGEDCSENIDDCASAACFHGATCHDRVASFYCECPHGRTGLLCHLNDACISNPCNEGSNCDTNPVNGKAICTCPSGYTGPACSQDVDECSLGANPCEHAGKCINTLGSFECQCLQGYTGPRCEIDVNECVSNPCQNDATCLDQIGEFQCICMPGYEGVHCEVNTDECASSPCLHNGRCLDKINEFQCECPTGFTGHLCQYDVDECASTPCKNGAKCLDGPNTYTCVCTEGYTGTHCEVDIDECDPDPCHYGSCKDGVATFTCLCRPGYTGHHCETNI

[4] = target: Notch1 expressed in N1rep ES cells (UniProt Q01705); remark: listed apart in the source

Sequence of Notch1 expressed in N1rep ES cells (Q01705 19-2531): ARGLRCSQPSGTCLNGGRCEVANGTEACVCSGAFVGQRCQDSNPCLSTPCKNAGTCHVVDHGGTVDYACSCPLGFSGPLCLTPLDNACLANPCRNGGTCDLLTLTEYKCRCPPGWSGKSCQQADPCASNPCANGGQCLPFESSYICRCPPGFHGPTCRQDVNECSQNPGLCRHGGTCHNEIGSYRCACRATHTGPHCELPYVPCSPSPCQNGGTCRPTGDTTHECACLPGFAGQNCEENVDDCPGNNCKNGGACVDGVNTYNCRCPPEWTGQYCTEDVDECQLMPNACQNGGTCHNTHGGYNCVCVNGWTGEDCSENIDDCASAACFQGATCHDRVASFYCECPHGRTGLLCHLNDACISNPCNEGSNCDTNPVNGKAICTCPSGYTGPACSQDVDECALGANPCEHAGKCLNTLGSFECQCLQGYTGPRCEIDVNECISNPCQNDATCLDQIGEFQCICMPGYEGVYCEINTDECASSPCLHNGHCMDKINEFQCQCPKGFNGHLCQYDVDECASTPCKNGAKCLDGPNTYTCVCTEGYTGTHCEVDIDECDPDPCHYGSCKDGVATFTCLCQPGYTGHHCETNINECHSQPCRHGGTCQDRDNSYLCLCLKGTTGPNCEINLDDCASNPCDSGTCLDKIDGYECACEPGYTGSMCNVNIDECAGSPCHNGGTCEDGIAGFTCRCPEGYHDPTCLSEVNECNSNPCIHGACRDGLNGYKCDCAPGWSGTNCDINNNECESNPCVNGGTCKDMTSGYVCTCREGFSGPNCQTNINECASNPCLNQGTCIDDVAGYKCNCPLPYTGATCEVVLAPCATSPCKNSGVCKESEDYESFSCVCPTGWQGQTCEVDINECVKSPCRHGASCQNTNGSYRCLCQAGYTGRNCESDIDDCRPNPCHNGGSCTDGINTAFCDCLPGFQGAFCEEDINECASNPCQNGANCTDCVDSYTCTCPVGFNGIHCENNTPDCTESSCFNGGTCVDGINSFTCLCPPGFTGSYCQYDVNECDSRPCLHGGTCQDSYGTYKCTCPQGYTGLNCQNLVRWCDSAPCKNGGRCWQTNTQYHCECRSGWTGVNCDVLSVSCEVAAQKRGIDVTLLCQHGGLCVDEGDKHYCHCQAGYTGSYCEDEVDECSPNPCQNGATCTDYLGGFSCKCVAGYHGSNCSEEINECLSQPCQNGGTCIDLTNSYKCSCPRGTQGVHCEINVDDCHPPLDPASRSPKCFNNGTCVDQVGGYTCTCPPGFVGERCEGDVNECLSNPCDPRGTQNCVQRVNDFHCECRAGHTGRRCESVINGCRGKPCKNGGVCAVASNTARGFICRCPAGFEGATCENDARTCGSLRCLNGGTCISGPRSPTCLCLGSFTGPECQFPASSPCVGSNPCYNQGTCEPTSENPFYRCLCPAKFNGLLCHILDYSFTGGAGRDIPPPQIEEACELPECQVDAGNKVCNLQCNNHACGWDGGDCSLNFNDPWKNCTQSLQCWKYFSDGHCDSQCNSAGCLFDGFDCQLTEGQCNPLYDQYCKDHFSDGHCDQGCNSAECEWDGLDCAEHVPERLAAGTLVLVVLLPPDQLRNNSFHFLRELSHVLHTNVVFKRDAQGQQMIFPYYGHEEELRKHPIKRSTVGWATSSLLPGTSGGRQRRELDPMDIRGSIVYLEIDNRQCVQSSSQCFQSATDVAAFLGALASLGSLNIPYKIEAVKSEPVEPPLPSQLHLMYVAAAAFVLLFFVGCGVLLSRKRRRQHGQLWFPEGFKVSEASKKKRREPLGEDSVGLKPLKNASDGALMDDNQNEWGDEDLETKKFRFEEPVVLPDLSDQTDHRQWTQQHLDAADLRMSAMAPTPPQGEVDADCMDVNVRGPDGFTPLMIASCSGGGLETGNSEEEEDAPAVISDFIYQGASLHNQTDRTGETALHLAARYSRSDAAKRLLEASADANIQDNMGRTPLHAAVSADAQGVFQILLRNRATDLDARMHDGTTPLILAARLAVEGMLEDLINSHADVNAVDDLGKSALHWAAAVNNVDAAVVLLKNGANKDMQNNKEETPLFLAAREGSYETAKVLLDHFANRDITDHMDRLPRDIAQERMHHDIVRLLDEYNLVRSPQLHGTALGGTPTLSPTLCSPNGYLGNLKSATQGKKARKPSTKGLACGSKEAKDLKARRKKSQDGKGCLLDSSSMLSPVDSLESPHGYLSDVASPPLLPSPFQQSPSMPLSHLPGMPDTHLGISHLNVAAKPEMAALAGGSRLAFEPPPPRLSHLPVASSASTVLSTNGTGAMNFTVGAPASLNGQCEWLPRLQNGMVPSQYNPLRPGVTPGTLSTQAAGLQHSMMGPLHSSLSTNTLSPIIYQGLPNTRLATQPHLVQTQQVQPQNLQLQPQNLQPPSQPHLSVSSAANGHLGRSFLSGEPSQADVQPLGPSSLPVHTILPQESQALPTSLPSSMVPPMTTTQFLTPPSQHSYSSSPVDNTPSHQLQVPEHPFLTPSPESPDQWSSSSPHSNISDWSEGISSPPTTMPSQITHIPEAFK
Sequence of mDLL4 (mouse DLL4, full length, expressed on ES cells) (Q9JI71 27-686): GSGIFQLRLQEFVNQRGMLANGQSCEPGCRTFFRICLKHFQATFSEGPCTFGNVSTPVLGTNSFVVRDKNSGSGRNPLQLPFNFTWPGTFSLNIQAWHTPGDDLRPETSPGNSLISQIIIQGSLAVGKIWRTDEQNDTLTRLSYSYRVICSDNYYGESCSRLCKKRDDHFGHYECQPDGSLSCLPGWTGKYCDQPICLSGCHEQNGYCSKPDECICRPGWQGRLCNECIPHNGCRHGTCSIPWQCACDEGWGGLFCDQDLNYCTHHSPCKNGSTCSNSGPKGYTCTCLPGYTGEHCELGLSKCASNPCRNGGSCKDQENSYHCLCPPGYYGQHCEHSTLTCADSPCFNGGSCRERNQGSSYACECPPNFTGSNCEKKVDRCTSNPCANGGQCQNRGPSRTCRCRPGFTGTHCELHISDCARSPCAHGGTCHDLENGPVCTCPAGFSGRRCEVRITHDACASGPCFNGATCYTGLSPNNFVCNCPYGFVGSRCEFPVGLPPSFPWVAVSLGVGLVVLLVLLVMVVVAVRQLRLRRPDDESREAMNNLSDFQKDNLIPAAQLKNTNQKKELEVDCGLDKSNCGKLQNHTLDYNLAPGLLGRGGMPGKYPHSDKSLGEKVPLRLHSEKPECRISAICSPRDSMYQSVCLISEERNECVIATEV
Sequence of mDLL1 (mouse DLL1, full length, expressed on ES cells) (Q61483 18-722): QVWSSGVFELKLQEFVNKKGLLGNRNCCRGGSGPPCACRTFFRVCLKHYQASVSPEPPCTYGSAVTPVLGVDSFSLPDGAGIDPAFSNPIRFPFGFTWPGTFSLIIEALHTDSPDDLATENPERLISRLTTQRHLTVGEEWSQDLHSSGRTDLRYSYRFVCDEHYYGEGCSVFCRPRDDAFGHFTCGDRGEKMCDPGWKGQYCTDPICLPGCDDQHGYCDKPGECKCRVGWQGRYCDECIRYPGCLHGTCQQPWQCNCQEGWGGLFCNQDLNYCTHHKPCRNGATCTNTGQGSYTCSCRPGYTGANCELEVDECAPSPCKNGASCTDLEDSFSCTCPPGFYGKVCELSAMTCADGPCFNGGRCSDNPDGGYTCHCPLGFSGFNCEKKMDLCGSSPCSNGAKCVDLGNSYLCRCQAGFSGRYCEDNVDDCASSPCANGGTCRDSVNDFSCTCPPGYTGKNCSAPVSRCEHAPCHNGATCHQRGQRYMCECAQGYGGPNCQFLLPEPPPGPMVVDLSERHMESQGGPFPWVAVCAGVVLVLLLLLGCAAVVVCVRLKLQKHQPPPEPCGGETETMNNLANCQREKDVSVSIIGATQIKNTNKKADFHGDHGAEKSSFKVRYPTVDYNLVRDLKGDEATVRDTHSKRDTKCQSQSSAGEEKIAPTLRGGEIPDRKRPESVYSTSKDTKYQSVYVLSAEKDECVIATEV

Substance: mDLL4 (mouse DLL4, full length, expressed on ES cells) (from UniProt Q9JI71 27-686) (ligand)
- luciferase Notch reporter in N2rep ES cells co-cultured with ligand-expressing ES cells; activation by DLL4 as fold of activation by DLL1, non-normalized [1]: 0.468 fold of DLL1
- luciferase Notch reporter in N2rep ES cells co-cultured with ligand-expressing ES cells; activation by DLL4 normalized to DLL1 activation and corrected for protein expression and cell surface levels [1]: 0.35 fold of DLL1
- luciferase Notch reporter in N1rep ES cells co-cultured with ligand-expressing ES cells; activation by DLL4 as fold of activation by DLL1, non-normalized [2]: 12.5 fold of DLL1
- luciferase Notch reporter in N1rep ES cells co-cultured with ligand-expressing ES cells; activation by DLL4 normalized to DLL1 activation and corrected for protein expression and cell surface levels [2]: 9.42 fold of DLL1

Substance: D1contD4 (DLL1 N-terminus through EGF5 with the N1 contact amino acids of the MNNL and DSL domains replaced by those of DLL4) (domain or fragment)
- pKd [3]: 6.49

Substance: mDLL1 (mouse DLL1, full length, expressed on ES cells) (from UniProt Q61483 18-722) (ligand)
- luciferase Notch reporter in N1rep ES cells co-cultured with DLL1-expressing ES cells, against the basal signal with E14 ES cells [4]: 10 fold

Substance: D4^N109G (DLL4 N-terminus through EGF5 with the N109G mutation) (from UniProt Q9JI71 27-686) (domain or fragment)
- pKd [3]: 6.47

Substance: D4contD1 (DLL4 N-terminus through EGF5 with the N1 contact amino acids of the MNNL and DSL domains replaced by those of DLL1) (domain or fragment)
- pKd [3]: 6.49
